The record followed here is PMC11103110.

Experiment [1] deals with Lotus japonicus phytoglobin LjGlb3-1, recombinant (Lotus japonicus) (UniProt P0DO64). The experiment in a line: SDS-PAGE with immunoblot (anti-NO2-Tyr and protein-specific antibodies); recombinant protein (20 μM in the methods, 5–10 μM in the legend) incubated with 500 μM SIN-1 (peroxynitrite generator) for 2 h at 30 °C in 50 mM KPi pH 7.4; 15% SDS-PAGE.
Experiment [2] shares this target. Put plainly: SDS-PAGE under non-reducing conditions with Coomassie staining and immunoblot; recombinant protein (20 μM in the methods, 10 μM in the legend) untreated, with 500 μM DTT or with 200–500 μM H2O2, 1 h, 50 mM KPi pH 7.4; 15% SDS-PAGE; DTT made the dimer almost totally disappear, H2O2 caused partial dimerization.

In the case of “Lotus japonicus phytoglobin LjGlb3-1, recombinant (from UniProt P0DO64 1-168) (natural protein)”, the stoichiometry N in experiment [1] and in experiment [2] was 2 in each case.
